In the RNAGym collection of RNA variant scans (doi:10.1093/nar/gkz1192) one finds self-cleavage data, which are given here for 167 variants.

B1: CPEB3 Ribozyme (parent)
chain: UAACAGGGGGCCACAGCAGAAGCGUUCACGUCGCAGCCCCUGUCAGAUUCUGGUGAAUCUGCGAAUUCUGCUGUAUAUCUC

In the data set the parent is B1. Briefly: self-cleavage, relative activity (ratio to wild type); higher = more cleavage; in vitro, sequencing. The gist of the method:
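CPEB3 self-cleaving ribozyme mutant libraries were made by rounds of error-prone PCR, barcoded, and transcribed in vitro with T7 RNA polymerase for 5 hours at 37°C. Cleavage occurred during transcription and a 15 min DNase I step before EDTA stop. RNAs were reverse transcribed with template switching and Illumina-sequenced, with DNA sequencing mapping barcodes to variants. Relative activity is the variant's cleaved/total read fraction divided by wild type's (minimum 5 reads), averaged across three batches.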
Regarding U1A A5U, the self-cleavage came out at 0.97. In the case of G6C U31C it was 0.45; in that of A57U U80C, 0.92; in that of U69C G70U, 0.25. To C44U U78G belongs 0.12; to A75G U80C, 0.65; to A5C G63U, 0.91. As to G19A A45G, the self-cleavage was 0.25. In the case of G6U C11A it was 0.16; in that of C39G U41G, 0.13; in that of A5G G63U, 0.95.

In the case of A45U U67G, the self-cleavage is 0.17. Consider A56U A65G, for which the self-cleavage turned out to be 0.29. In the case of A28U U69A it was 0.37; in that of U26G A65U, 0.15. In the case of G9U G19U it was 0.07; in that of A28G U51A, 0.63.

As to G10A G30U, the self-cleavage stood at 0.17. Take C4A G22C: the self-cleavage stood at 0.25. To G30U U54C belongs 0.14; to G10A U49C, 0.19.

On to C14U A77C, for which the self-cleavage was 0.53. In the case of G7A U31G it was 0.14; in that of A56U G63C, 0.61. In the case of G33A U80C it was 0.31.

In the case of C32A U48G, the self-cleavage stood at 0.24.

On to G16A C79A, for which the self-cleavage was 0.81.

On to G8A C23A, for which the self-cleavage was 0.06.

A28G U74C: the self-cleavage was found to be 1. In the case of G6U U66A it was 0.13; in that of A15G U43C, 0.47. In the case of A13U C34U it was 0.43. In the case of A47G U58A it was 0.57. As for A21C U72A, the self-cleavage turned out to be 0.19. In the case of U31G G36U it was 0.15; in that of G10A U58C, 0.18.

G10A U58A: the self-cleavage amounted to 0.24. In the case of U26A A47U, the self-cleavage is 0.58. In the case of A35U U54A it was 0.55. To A28U U49G belongs 0.11; to A28G U58G, 0.46. Regarding C37U U67C, the self-cleavage was 0.22. In the case of G24C A35G it was 0.1; in that of C39A A77U, 0.32. In the case of G9U C14U it was 0.11; in that of A5G G9A, 0.39. On to U60C A65C, for which the self-cleavage worked out at 0.17. A5U C34A: the self-cleavage was 0.65. In the case of G6A U25C it was 0.27. To U41A U66A belongs 0.27.

With A20U U80C, the self-cleavage is 0.37.

A3G G24A: the self-cleavage was determined as 0.6. As for G8U G24A, the self-cleavage is 0.16. Consider C11U A15G, for which the self-cleavage was found to be 0.4.

As to A56U A64G, the self-cleavage came to 0.51. In the case of C62A U80C it was 0.34; in that of U60C U69A, 0.35. In the case of U54A U60G, the self-cleavage was 0.65. In the case of A18C U41C it was 0.34; in that of C62U C68U, 0.21; in that of C37U U72A, 0.27. To A15G C40U belongs 0.67; to A2U U25A, 0.09; to U1A C37G, 1.04. Take A28U C62A: the self-cleavage is 0.33.

For the variant A5U A45G, the self-cleavage was found to be 1.02. In the case of G24A A35U it was 0.17.

In the case of A47U A64G, the self-cleavage was 0.37. To G42U U43C belongs 0.43; to G7A G24A, 0.08; to U26A G42A, 0.29. For C12U C40U, the self-cleavage was 1.12. In the case of C39G it was 0.3. To U26A A64G belongs 0.61; to A45U A64U, 0.27. Take A45U U74C: the self-cleavage worked out at 0.87. On to G8A U26A, for which the self-cleavage stood at 0.19. In the case of G8A A56C it was 0.24; in that of G6A G42A, 0.15. To U58C C68A belongs 0.2; to U69C C79U, 0.74.

Consider U31C U72G, for which the self-cleavage was determined as 0.46.

U51G U74A: the self-cleavage amounted to 1.14. Turning to G6A U60C, the self-cleavage was 0.27.

Consider U76C C79G, for which the self-cleavage was 1.22.

Turning to A20G C29G, the self-cleavage came to 0.39. In the case of A13U U49A it was 0.71. In the case of G10A U60G it was 0.06; in that of A35C U80A, 0.89; in that of C29U U51C, 0.46.

For the variant U54C C62G, the self-cleavage was 0.13.

Consider C23A U49A, for which the self-cleavage came to 0.25.

Turning to G9U U58C, the self-cleavage came to 0.14.

On to U54C U72A, for which the self-cleavage is 0.62. As to U25G U31A, the self-cleavage was found to be 0.23. In the case of A21G A56G, the self-cleavage worked out at 0.4. To A47U A56G belongs 0.35; to G10U U48A, 0.35; to U1G A15G, 0.84. As for G6C A45U, the self-cleavage turned out to be 0.32. To U69C A75U belongs 0.44; to C27A U80A, 0.17.

G9U A64G: the self-cleavage was found to be 0.15. In the case of U48A U54A it was 0.43; in that of A28G G36U, 0.15; in that of U31G C40G, 0.12. To U48A U78A belongs 0.42; to A15G U66A, 0.45; to C11G G19C, 0.48.

Consider A5G A47U, for which the self-cleavage turned out to be 0.34. To U25C U78A belongs 0.25; to U43C U60A, 0.27. Turning to U26C U72G, the self-cleavage is 0.41. In the case of C44A U74C it was 0.63.

On to G36A C71U, for which the self-cleavage stood at 0.15. To U58C A65C belongs 0.14. In the case of C32U U51G it was 0.22; in that of C37U G70A, 0.32. In the case of G53U U74A it was 1.2; in that of U51C U69A, 0.7. For the variant C4U A56G, the self-cleavage came to 1.06. In the case of G6A C23A it was 0.1. Regarding C68G, the self-cleavage stood at 0.47. To G19U A47U belongs 0.5. To C12U C27A belongs 0.46. To G53A U72C belongs 1.23. On to G53A U72A, for which the self-cleavage is 0.79. In the case of A20G G36A it was 0.36; in that of C32U U58A, 0.14. To G9C G55A belongs 0.41; to C50U U66A, 0.22; to U26A C50A, 0.76.

With C34U U58C, the self-cleavage stood at 0.16. In the case of C40U A45U it was 0.15; in that of U72C U74C, 1.22; in that of C12U A13U, 1.15. To A3G U41C belongs 0.98; to G30A U72C, 0.33. To U78C belongs 1.02; to U26A U78G, 0.5; to G46A U66C, 0.25.

Regarding G46U A77G, the self-cleavage was determined as 0.2. In the case of A18U G19C it was 0.23; in that of A35U G63C, 0.45; in that of C29A A56G, 0.43. To C81U belongs 1.18; to A3G C27G, 0.43. In the case of C17U U48C it was 0.31; in that of C38U U60C, 0.33. Consider G16A U41A, for which the self-cleavage was 0.1.

As to C32G A45U, the self-cleavage turned out to be 0.08.

As for U25G A57G, the self-cleavage came to 0.16. To U49C U74G belongs 0.59. In the case of A13U U54A it was 1.18; in that of U26C C29A, 0.18.

On to A35C U51C, for which the self-cleavage amounted to 0.79. As to U26A A28G, the self-cleavage is 0.38. In the case of G16C U26A it was 0.3. In the case of U26A U49C it was 0.3; in that of C11U U25C, 0.22. To G36C U80A belongs 0.12; to A20C G24A, 0.21; to A21G G61A, 0.2. For the variant U25C A65G, the self-cleavage amounted to 0.3.

Turning to G30A U49A, the self-cleavage came out at 0.1.

As to U43A U54A, the self-cleavage came out at 1.25.

As for U43A A56C, the self-cleavage came out at 0.73.
